Measurements from patent US20240252689A1, “POLY-ADP RIBOSE (PAR) TRACKER OPTIMIZED SPLIT-PROTEIN REASSEMBLY PAR DETECTION REAGENTS” (THE BOARD OF REGENTS OF THE UNIVERSITY OF TEXAS SYSTEM, priority 2021, published 2024).
One block for each molecule: values may come before it.

Columns and labels:
PARylated PARP-1 = PARylated PARP-1 (Homo sapiens, UniProt P09874); assay: In vitro ADP-ribosylation assay with ARBD-ddGFP pairs, recombinant PARP-1; format: biochemical; details: ARBD fused to ddGFP-A/B, recombinant proteins
Source text: Dimerization-dependent GFP is a genetically encoded sensor that was initially developed to study protein interactions. In this system, a pair of a quenched GFP (ddGFPA) and a non-fluorogenic GFP (ddGFPB) form a heterodimer that can result in improved fluorescence. In this example, a ddGFP-based fluorescence sensor (fluorescent PAR-Trackers or PAR-T) was designed to allow for live cell imaging, with high signal-noise ratio. To achieve this, the various ADPR reader domains (ARBDs) were fused to ddGFP-A/B and purified as recombinant proteins (FIG. 1A, FIG. 1B, FIG. 6A). In vitro ADP-ribosylation assays were performed using recombinant PARP-1 (to detect PAR) and PARP-3 (to detect MAR) specifically (FIG. 6B and FIG. 6C). […] These reagents recognized PARylated-PARP-1 but not MARylated PARP-3, or the precursors of ADPR (FIG. 1C). Accordingly, the utility of these reagents was further tested in in vitro PARP-1 PARylation reactions with increasing concentrations of NAD+(FIGS. 6F and 6G) and increasing time of reaction (FIG. 1D and FIG. 1E). Similarly, degradation of PAR chains by ARH3 was detected in a time (FIG. 1F and FIG. 1G) and dose (FIG. 6H) dependent way. Further, in vitro reactions were performed by incubating the recombinant PAR-T sensors and lysates from Hela cells treated with H2O2 to induce DNA damage and activate PARP-1.

PARP-1 activation = assay: Live cell imaging with ddGFP PAR-T after H2O2-mediated PARP-1 activation; format: cell-based; details: cells treated with H2O2, compared to ddGFP alone
Procedure: Cells were treated with various inhibitors as described herein. For inhibition of nuclear PARPs, cells were treated with PJ-34 ([…]; Enzo, ALX-270) or Olaparib (20 µM; MedChem Express, HY-10162) for 2 hours. For inhibition of PARG, cells were treated with PDD 00017273 (20 µM; MedChem Express, HY-108360) for 2 hours. For UV-induced DNA damage, the cells were harvested 15 minutes after treatment with 50 mJ/cm2 UV irradiation.
Having confirmed the specificity of the PAR-T sensors, their utility in live cell imaging was then tested. PAR-T sensors were expressed in Hela cells in a doxycycline-dependent manner and live cell imaging performed after subjecting the cells to H2O2-mediated PARP-1 activation (FIG. 7A). This PAR-T construct also expresses mCherry with nuclear localization signal (NLS) to illuminate the nuclei and act as a control for variability in expression of the constructs (FIG. 7A). […] Using the WWE-based ddGFP PAR-T construct, accumulation of PAR after H2O2-treatment was detected in real time.
Next, a set of assays was performed to compare the performance of the PAR-T sensors to conventional PAR detection reagents (WWE-Fc and PAR antibody) in a variety of assays. […]

PARylated PARP-1, sequence (P09874 whole entry, the tested form may be a part): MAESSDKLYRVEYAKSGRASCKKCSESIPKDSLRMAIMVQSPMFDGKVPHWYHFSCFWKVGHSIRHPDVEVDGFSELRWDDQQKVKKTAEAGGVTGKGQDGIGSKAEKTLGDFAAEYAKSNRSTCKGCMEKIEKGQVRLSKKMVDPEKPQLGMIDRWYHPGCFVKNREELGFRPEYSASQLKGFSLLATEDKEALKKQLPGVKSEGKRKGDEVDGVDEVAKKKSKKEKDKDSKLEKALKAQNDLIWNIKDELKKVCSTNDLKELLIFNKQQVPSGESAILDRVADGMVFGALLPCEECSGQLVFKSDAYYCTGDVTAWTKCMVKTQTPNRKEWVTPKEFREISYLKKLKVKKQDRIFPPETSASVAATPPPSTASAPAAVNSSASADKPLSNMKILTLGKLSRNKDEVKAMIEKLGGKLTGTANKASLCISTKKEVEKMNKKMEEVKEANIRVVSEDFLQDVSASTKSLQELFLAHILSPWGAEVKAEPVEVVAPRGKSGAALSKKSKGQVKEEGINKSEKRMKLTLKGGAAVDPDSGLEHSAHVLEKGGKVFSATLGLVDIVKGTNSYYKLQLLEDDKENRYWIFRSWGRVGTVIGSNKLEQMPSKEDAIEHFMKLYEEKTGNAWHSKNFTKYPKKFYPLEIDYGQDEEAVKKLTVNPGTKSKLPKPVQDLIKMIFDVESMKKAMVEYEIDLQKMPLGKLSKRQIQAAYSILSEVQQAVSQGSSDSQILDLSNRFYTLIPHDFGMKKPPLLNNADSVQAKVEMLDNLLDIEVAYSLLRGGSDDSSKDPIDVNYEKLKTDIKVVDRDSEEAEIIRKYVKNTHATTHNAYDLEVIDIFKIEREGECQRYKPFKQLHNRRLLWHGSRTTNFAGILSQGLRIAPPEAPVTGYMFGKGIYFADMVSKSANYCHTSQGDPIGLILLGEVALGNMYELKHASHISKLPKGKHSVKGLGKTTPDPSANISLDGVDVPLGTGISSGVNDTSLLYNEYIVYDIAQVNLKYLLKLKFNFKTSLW

- recognizing PARylated PARP-1 (fluorescence) (PARylated PARP-1): performed well
- recognizing PARylated PARP-1 (fluorescence) (PARylated PARP-1; listed as macrodomain): worked better
B1: macrodomain from AF1521: macrodomain from AF1521 fused to ddGFP-A/B, recombinant ARBD-ddGFP pair (protein, listed as Archaeoglobus fulgidus)
chain: MERRTLIMEVLFEAKVGDITLKLAQGDITQYPAKAIVNAANKRLEHGGGVAYAIAKACAGDAGLYTEISKKAMREQFGRDYIDHGEVVVTPAMNLEERGIKYVFHTVGPICSGMWSEELKEKLYKAFLGPLEKAEEMGVESIAFPAVSAGIYGCDLEKVVETFLEAVKNFKGSAVKEVALVIYDRKSAEVALKVFERSL

- recognizing PARylated PARP-1 (fluorescence) (PARylated PARP-1): able to detect PARylation in vitro
B2: WWE-macrodomain combination sensor: ddGFP sensor pair combining WWE domain from RNF146 and macrodomain from AF1521 (protein)
chain 1: MGNGEYAWYYEGRNGWWQYDERTSRELEDAFSKGKKNTEMLIAGFLYVADLENMVQYRRNEHGRRRKIKRDIIDIPKKGVAGLR
chain 2: B1 chain
modifications: left off: small tags and cut ends
notes: ddGFP sensor pair combining WWE domain from RNF146 and macrodomain from AF1521
- detection of PARP-1 activation / PARylation in live cell imaging (PARP-1 activation): failed to recognize PARylation in cells

- recognizing PARylated PARP-1 (fluorescence) (PARylated PARP-1; listed as WWE domain): worked better
- recognizing PARylated PARP-1 (fluorescence) (PARylated PARP-1; listed as WWE domain from RNF146): performed well
B3: PAR-T ddGFP: WWE domain from RNF146 fused to dimerization-dependent GFP monomers ddGFP-A and ddGFP-B (protein)
chain 1: MGHHHHHHHHHHSSGHIDDDDKHMLEGNGEYAWYYEGRNGWWQYDERTSRELEDAFSKGKKNTEMLIAGFLYVADLENMVQYRRNEHGRRRKIKRDIIDIPKKGVAGLRLEFSTGHGTGSTGSGSSGTASSESTGSSMASKSEEVIKEFMRFKVRLEGSMNGHEFEIEGEGEGRPYEGTQTAKLKVTKGGPLPFAWDILSPLIMYGSKMYVKHPADVPDYMKLSFPEGFKWERVMHFEDGGLVTATQDSSLQDGTLIYKVKMRGTNFPPDGPVMQKKTLGWDYATERLYPEEGVLKGELLGRLKLKDGGLNLVESKTIYMAKKPVQLPGYYFVDTKLDITSHNEDYTIVEQYERSEGRHHLGH
chain 2: MGHHHHHHHHHHSSGHIDDDDKHMLEGNGEYAWYYEGRNGWWQYDERTSRELEDAFSKGKKNTEMLIAGFLYVADLENMVQYRRNEHGRRRKIKRDIIDIPKKGVAGLRLEFSTGHGTGSTGSGSSGTASSESTGSSTIKEFMRFKVRMEGSMNGHEFEIEGEGEGRPYEGTQTAKLKVTKGGPLPFAWDILSPQIMYGSKAYVRHPADIPDYKKLPFPEGFKWERVMNFEDGGLVTVTQDSSLQDGTLICKVKIRGTNFPPDGPVMQKKTMGWEASTEMLYPKDGVLKGHSYQALKLKDGGHYLVEFETIYMAKKPVQLPGDYCVDTKLDITSHNEDYTIVEQYGRSEGRHRLGMDERYK
- detection of PARP-1 activation / PARylation in live cell imaging (PARP-1 activation): detected PARP-1 activation
